Measured values reported in paper PMC6872632, “BIK1 and ERECTA Play Opposing Roles in Both Leaf and Inflorescence Development in Arabidopsis” (Frontiers in Plant Science, 2019).

T1: BOTRYTIS-INDUCED KINASE1 (BIK1), His-tagged recombinant protein (Arabidopsis thaliana, UniProt O48814 1-395)
T1 construct: BOTRYTIS-INDUCED KINASE1 (BIK1), Arabidopsis thaliana, full-length ORF cloned into pET-28; source: E. coli BL21, purified (Ni-Sepharose beads)
T1 sequence (looked up): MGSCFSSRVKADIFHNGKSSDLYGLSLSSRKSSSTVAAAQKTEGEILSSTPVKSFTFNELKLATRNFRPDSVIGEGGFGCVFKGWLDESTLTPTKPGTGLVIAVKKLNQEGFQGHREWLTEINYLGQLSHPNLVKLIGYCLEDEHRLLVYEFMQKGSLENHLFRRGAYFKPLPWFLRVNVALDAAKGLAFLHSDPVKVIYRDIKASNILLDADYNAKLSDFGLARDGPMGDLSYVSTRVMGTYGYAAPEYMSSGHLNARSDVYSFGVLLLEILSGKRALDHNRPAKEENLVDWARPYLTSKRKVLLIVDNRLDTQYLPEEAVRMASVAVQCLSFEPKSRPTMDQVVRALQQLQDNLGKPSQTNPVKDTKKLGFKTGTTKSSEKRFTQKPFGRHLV

B1: ERECTA (ER) cytoplasmic domain, GST-tagged recombinant protein (domain or fragment, Arabidopsis thaliana, UniProt Q42371 602-976, looked up)
chain: CRPHNPPPFLDGSLDKPVTYSTPKLVILHMNMALHVYEDIMRMTENLSEKYIIGHGASSTVYKCVLKNCKPVAIKRLYSHNPQSMKQFETELEMLSSIKHRNLVSLQAYSLSHLGSLLFYDYLENGSLWDLLHGPTKKKTLDWDTRLKIAYGAAQGLAYLHHDCSPRIIHRDVKSSNILLDKDLEARLTDFGIAKSLCVSKSHTSTYVMGTIGYIDPEYARTSRLTEKSDVYSYGIVLLELLTRRKAVDDESNLHHLIMSKTGNNEVMEMADPDITSTCKDLGVVKKVFQLALLCTKRQPNDRPTMHQVTRVLGSFMLSEQPPAATDTSATLAGSCYVDEYANLKTPHSVNCSSMSASDAQLFLRFGQVISQNSE
notes: ERECTA (ER), Arabidopsis thaliana, truncated to the cytoplasmic domain (CD), in pGEX-4T-1; also called GST-ER-CD; ER-CD; source: E. coli BL21, purified (Glutathione Sepharose beads)
B2: ERL2 cytoplasmic domain, GST-tagged recombinant protein (domain or fragment, Arabidopsis thaliana, UniProt Q6XAT2 607-967, looked up)
chain: YKSKQQKPVLKGSSKQPEGSTKLVILHMDMAIHTFDDIMRVTENLDEKYIIGYGASSTVYKCTSKTSRPIAIKRIYNQYPSNFREFETELETIGSIRHRNIVSLHGYALSPFGNLLFYDYMENGSLWDLLHGPGKKVKLDWETRLKIAVGAAQGLAYLHHDCTPRIIHRDIKSSNILLDGNFEARLSDFGIAKSIPATKTYASTYVLGTIGYIDPEYARTSRLNEKSDIYSFGIVLLELLTGKKAVDNEANLHQMILSKADDNTVMEAVDAEVSVTCMDSGHIKKTFQLALLCTKRNPLERPTMQEVSRVLLSLVPSPPPKKLPSPAKVQEGEERRESHSSDTTTPQWFVQFREDISKSSL
notes: ERL2 (ER-LIKE2), Arabidopsis thaliana, truncated to the cytoplasmic domain (CD), in pGEX-4T-1; also called GST-ERL2-CD; source: E. coli BL21, purified (Glutathione Sepharose beads)
B3: ER-LIKE1 (ERL1) cytoplasmic domain, GST-tagged recombinant protein (domain or fragment, Arabidopsis thaliana, UniProt C0LGW6 604-966, looked up)
chain: YKSMQQKKILQGSSKQAEGLTKLVILHMDMAIHTFDDIMRVTENLNEKFIIGYGASSTVYKCALKSSRPIAIKRLYNQYPHNLREFETELETIGSIRHRNIVSLHGYALSPTGNLLFYDYMENGSLWDLLHGSLKKVKLDWETRLKIAVGAAQGLAYLHHDCTPRIIHRDIKSSNILLDENFEAHLSDFGIAKSIPASKTHASTYVLGTIGYIDPEYARTSRINEKSDIYSFGIVLLELLTGKKAVDNEANLHQLILSKADDNTVMEAVDPEVTVTCMDLGHIRKTFQLALLCTKRNPLERPTMLEVSRVLLSLVPSLQVAKKLPSLDHSTKKLQQENEVRNPDAEASQWFVQFREVISKSSI
notes: ER-LIKE1 (ERL1), Arabidopsis thaliana, truncated to the cytoplasmic domain (CD), in pGEX-4T-1; also called GST-ERL1-CD; source: E. coli BL21, purified (Glutathione Sepharose beads)

Target: T1, BOTRYTIS-INDUCED KINASE1 (BIK1), …
Experiment: pull-down; 10 µg BIK1-His and 10 µg GST-ER/ERL1/ERL2-CD or GST with glutathione agarose beads, 25 mM Tris-HCl pH 7.5, 150 mM NaCl, 1 mM DTT, 3 h; eluted with 30 mM glutathione; BIK1-His detected with anti-His antibody
Details: both partners purified

Binding result, binds:
B1
B2
B3
